Source: doi:10.1101/2023.07.11.548556, “Skeletal progenitor LRP1 deficiency causes severe and persistent skeletal defects with WNT/planar cell polarity dysregulation” (bioRxiv, 2023)

B1: Wnt5a (ligand, UniProt P41221 62-380, looked up)
chain: IIGAQPLCSQLAGLSQGQKKLCHLYQDHMQYIGEGAKTGIKECQYQFRHRRWNCSTVDNTSVFGRVMQIGSRETAFTYAVSAAGVVNAMSRACREGELSTCGCSRAARPKDLPRDWLWGGCGDNIDYGYRFAKEFVDARERERIHAKGSYESARILMNLHNNEAGRRTVYNLADVACKCHGVSGSCSLKTCWLQLADFRKVGDALKEKYDSAAAMRLNSRGKLVQVNSRFNSPTTQDLVYIDPSPDYCVRNESTGSLGTQGRLCNKTSEGMDGCELMCCGRGYDQFKTVQTERCHCKFHWCCYVKCKKCTEIVDQFVCK
notes: Wnt5a, purified protein; source: purified
B2: Wnt3a (ligand, UniProt P56704 19-352, looked up)
chain: SYPIWWSLAVGPQYSSLGSQPILCASIPGLVPKQLRFCRNYVEIMPSVAEGIKIGIQECQHQFRGRRWNCTTVHDSLAIFGPVLDKATRESAFVHAIASAGVAFAVTRSCAEGTAAICGCSSRHQGSPGKGWKWGGCSEDIEFGGMVSREFADARENRPDARSAMNRHNNEAGRQAIASHMHLKCKCHGLSGSCEVKTCWWSQPDFRAIGDFLKDKYDSASEMVVEKHRESRGWVETLRPRYTYFKVPTERDLVYYEASPNFCEPNPETGSFGTRDRTCNVSSHGIDGCDLLCCGRGHNARAERRREKCRCVFHWCCYVSCQECTRVYDVHTCK
notes: Wnt3a, purified protein; source: purified
B3: Wnt11 (ligand, UniProt O96014 25-354, looked up)
chain: IKWLALSKTPSALALNQTQHCKQLEGLVSAQVQLCRSNLELMHTVVHAAREVMKACRRAFADMRWNCSSIELAPNYLLDLERGTRESAFVYALSAAAISHAIARACTSGDLPGCSCGPVPGEPPGPGNRWGGCADNLSYGLLMGAKFSDAPMKVKKTGSQANKLMRLHNSEVGRQALRASLEMKCKCHGVSGSCSIRTCWKGLQELQDVAADLKTRYLSATKVVHRPMGTRKHLVPKDLDIRPVKDSELVYLQSSPDFCMKNEKVGSHGTQDRQCNKTSNGSDSCDLMCCGRGYNPYTDRVVERCHCKYHWCCYVTCRRCERTVERYVCK
notes: Wnt11, purified protein; source: purified

Biological target: T1, Low-density lipoprotein receptor-related protein 1 (LRP1), purified human full-length (human, UniProt Q07954 20-4544)
T1 construct: Low-density lipoprotein receptor-related protein 1 (LRP1), human, purified full-length protein coated on the plate; also called full-length LRP1; Full-length sLRP1; source: purified
T1 sequence (Q07954 20-4544): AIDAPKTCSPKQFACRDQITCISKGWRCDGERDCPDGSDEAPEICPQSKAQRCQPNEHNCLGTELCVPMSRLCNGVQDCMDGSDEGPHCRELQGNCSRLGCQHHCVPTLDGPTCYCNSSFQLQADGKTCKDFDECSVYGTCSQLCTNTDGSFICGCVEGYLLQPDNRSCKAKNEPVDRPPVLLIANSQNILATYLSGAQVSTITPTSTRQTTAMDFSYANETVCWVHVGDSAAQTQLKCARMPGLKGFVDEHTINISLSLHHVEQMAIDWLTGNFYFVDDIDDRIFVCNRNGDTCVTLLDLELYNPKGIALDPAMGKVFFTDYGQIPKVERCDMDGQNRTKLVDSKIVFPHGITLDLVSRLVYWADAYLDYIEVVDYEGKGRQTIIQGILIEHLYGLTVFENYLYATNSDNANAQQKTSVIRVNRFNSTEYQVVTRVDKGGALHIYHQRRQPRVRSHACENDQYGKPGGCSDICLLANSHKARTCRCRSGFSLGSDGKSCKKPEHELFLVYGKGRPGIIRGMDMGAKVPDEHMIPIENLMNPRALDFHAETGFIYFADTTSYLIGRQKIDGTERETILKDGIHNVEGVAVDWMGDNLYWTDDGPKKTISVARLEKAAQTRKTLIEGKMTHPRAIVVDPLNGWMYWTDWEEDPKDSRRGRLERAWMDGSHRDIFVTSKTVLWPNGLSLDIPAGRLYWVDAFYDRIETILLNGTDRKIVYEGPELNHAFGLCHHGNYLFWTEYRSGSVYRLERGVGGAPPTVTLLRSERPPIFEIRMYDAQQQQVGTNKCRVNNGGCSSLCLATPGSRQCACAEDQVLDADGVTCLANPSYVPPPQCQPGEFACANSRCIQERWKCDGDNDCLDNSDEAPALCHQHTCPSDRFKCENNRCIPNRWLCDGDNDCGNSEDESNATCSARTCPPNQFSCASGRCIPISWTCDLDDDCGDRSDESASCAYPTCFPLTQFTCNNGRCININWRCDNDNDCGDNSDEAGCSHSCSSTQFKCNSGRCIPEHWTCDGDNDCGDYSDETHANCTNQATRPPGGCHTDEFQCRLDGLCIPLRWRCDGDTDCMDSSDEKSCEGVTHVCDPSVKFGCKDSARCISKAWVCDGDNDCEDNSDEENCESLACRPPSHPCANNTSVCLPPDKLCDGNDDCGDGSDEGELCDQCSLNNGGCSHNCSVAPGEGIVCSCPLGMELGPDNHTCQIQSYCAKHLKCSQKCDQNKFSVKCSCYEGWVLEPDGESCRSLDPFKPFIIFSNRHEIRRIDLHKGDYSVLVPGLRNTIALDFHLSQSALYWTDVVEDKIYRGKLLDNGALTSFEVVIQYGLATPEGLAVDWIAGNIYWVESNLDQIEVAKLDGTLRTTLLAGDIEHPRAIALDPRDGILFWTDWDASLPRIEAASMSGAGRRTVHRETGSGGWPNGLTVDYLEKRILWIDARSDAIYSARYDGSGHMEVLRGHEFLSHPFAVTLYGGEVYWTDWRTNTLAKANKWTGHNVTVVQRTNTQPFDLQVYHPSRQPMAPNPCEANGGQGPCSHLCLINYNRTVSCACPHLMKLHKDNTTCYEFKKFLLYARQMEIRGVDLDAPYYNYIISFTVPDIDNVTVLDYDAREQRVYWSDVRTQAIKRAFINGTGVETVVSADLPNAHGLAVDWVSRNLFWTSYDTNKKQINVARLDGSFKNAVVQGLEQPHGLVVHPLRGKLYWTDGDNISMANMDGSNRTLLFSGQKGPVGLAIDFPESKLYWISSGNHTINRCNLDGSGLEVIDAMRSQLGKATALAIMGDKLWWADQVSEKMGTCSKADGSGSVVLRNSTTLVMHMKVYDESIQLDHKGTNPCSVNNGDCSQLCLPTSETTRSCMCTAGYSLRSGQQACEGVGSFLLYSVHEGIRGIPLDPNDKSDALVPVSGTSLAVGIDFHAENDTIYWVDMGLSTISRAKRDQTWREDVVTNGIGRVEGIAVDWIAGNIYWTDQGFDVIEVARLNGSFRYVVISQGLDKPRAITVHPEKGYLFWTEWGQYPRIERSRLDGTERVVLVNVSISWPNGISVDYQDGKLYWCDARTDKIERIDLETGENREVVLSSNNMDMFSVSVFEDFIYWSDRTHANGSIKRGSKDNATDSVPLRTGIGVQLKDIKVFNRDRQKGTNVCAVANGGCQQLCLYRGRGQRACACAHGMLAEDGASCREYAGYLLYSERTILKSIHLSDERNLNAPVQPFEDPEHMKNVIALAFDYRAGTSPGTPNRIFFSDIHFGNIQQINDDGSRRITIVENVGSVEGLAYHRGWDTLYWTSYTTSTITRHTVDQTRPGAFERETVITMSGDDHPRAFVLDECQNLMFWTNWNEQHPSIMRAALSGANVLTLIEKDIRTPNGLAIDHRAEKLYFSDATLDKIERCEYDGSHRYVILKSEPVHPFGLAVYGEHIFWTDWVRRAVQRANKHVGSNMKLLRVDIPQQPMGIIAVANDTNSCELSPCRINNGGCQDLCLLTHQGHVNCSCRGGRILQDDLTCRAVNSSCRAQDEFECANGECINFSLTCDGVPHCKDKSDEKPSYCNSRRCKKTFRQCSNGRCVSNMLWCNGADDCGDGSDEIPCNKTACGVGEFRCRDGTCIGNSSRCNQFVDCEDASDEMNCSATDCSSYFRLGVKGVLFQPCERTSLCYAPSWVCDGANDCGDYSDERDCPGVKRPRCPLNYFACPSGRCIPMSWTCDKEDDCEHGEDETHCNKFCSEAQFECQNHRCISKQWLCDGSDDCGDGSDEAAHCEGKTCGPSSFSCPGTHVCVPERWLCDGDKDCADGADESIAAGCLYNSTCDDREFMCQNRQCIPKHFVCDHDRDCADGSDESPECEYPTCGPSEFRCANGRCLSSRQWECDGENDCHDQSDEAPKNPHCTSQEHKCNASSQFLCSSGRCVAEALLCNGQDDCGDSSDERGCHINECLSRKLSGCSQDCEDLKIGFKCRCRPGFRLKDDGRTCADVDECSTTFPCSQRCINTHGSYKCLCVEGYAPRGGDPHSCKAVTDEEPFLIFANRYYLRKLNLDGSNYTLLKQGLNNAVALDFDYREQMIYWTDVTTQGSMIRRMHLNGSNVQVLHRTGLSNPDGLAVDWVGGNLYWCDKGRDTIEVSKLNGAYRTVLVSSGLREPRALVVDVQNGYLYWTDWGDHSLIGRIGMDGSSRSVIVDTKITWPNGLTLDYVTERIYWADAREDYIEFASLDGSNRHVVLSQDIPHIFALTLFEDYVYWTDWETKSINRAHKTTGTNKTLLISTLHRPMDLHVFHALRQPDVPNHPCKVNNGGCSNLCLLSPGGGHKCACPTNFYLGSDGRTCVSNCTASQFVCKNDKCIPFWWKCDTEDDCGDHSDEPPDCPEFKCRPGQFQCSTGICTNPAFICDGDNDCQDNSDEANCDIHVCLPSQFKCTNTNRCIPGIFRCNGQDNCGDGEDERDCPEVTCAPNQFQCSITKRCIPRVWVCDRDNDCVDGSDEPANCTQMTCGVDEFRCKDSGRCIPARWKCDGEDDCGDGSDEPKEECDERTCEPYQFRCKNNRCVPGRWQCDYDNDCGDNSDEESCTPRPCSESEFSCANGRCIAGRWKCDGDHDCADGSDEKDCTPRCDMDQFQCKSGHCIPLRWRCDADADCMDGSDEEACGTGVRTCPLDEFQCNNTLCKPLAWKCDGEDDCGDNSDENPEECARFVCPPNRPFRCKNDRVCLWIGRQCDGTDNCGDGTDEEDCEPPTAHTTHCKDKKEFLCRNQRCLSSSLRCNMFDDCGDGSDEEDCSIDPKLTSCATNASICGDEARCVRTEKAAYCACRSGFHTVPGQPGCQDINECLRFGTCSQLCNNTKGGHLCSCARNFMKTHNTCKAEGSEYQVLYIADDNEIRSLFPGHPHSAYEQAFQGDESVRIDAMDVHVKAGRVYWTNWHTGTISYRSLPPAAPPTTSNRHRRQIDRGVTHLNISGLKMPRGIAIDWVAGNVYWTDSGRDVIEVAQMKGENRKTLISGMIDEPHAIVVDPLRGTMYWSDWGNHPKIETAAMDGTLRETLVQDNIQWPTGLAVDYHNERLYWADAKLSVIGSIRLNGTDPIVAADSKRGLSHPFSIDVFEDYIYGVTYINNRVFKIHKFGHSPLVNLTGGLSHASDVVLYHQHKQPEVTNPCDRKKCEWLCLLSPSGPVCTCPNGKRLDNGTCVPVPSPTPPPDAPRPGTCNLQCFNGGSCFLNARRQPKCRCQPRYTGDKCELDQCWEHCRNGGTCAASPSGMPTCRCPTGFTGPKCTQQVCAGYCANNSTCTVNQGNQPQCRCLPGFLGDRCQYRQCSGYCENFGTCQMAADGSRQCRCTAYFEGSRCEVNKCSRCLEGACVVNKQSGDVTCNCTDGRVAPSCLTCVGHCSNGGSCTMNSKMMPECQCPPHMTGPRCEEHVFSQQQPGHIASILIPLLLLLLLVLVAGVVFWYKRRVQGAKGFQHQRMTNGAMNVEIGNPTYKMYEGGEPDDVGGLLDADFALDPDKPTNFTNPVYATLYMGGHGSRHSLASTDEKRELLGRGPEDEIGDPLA
Assay: ELISA; solid-phase binding assay; human full-length LRP1 (10 nM in 50 mM Tris-HCl pH 7.5, 150 mM NaCl, 10 mM CaCl2) coated on microtiter plates; 0-200 nM Wnt in 5% BSA blocking solution, 30 min at RT; bound Wnt detected with a specific anti-Wnt antibody; signal of uncoated wells subtracted; apparent constants (KD,app) extrapolated from a one-phase decay nonlinear fit
Conditions: both partners purified

Going from B1 to B2, the Kd rises from 31 nM to over 200 nM.

B3 was tested, and the Kd was 42 nM.
